Assay results reported in US7611711B2, “VEGFR-3 inhibitor materials and methods” (Vegenics Limited, priority 2001, dated 2009).
Ends that are not written are not given here. GST = glutathione-S-transferase

Molecular target: T1, VEGFR-3/EpoR chimera expressed on BaF3 cells (UniProt P14753+P35916)
T1 construct: expressed in transfected cells; host or cells: BaF3 (IL-3 dependent murine pro-B cells)
T1 sequence (P35916+P14753 with tags, fused parts or gaps): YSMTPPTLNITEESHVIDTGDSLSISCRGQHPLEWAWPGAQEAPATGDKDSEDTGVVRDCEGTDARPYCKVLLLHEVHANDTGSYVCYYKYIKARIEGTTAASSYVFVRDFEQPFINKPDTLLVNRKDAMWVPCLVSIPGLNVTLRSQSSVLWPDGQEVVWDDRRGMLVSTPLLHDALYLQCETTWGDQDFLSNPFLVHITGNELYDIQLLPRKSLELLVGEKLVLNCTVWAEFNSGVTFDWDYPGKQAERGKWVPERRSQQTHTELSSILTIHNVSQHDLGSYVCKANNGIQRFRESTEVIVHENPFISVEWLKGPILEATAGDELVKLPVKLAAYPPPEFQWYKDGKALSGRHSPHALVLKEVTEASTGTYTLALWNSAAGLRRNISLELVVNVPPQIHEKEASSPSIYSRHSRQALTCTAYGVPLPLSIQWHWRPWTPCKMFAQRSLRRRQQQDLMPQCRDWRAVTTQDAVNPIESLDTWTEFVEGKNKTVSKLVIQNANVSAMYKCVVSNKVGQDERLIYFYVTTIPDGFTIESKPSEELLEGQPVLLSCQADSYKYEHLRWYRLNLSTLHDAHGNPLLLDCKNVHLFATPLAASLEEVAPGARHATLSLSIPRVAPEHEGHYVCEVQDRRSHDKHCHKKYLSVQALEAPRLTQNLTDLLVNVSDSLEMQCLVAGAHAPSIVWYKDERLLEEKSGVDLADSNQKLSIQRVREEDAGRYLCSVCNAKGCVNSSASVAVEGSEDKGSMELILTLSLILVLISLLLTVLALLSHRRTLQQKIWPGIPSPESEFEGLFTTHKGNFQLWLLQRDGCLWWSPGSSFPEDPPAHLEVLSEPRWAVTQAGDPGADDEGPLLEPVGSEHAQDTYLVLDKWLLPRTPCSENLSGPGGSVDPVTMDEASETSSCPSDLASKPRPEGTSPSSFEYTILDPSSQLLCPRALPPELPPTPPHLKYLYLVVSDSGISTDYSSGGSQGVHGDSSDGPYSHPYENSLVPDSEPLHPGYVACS
Assay: Bioassay for VEGFR-3 stimulation: viability (MTT) of BaF3 cells expressing a VEGFR-3/EpoR chimera, supplied with VEGF-C
Format: cell-based
Procedure: For the viability assay, the IL-3 dependent BaF3 cells expressing a VEGFR-3/EpoR chimera (Aschen et al, Eur J Biochem. 267(9):2505-15, 2000) were seeded in 96 well microtiter plates at 15000 cells/well in triplicates in the absence of IL-3 but supplied with the lOOng/ml VEGF-C and a range of concentrations of the selected peptides fused with GST. Cells were cultured for 48 h, during which time the cells incubated in cell culture medium alone had died. The viability of the cells was determined by the MTT reagent, which was added at a concentration of 0.5 mg/ml. After 2 h an equal volume of cell lysis solution was added (10%SDS/10 mM HCl) and allowed to incubate overnight at 37° C. The absorbance was measured at 540 nm.
The effects of the peptides fused to GST on the growth of BaF3-R3/EpoR were assessed using the MTT assay as described above and are depicted in FIG. 1. In this experiment, GST- CGYWLTIWGC (SEQ ID NO: 35) fusion protein was used for the inhibition of VEGF-C binding to VEGFR-3 expressed on BaF3 cells. In this experiment, a 20 uM concentration of the fusion protein sufficed to inhibit the binding completely as measured by the MTT cell death assay.

## CGYWLTIWGC (isolated peptide)
BaF3 cells expressing VEGFR-3
  competition with VEGF-C binding to VEGFR-3 expressed on BaF3 cells (in words): competes with VEGF-C binding to VEGFR-3

## GST-CGYWLTIWGC: fusion protein of glutathione-S-transferase (GST) with peptide CGYWLTIWGC, produced in E. coli from pGEX-2T ({GST}-CGYWLTIWGC; cysteine pairing not given here; also: GST fusion, dimerising)
GST fusion protein, BaF3-R3/EpoR cells, no IL-3, VEGF-C supplied, 48 h
  concentration that sufficed to inhibit VEGF-C binding to VEGFR-3 completely, as measured by the MTT cell death assay: 20 µM
GST fusion protein, BaF3 cells
  concentration sufficient to completely inhibit VEGF-C/D binding to VEGFR-3 expressed on BaF3 cells: 20 µM
